Experimental data reported in article PMC5913134, “The IL-33-PIN1-IRAK-M axis is critical for type 2 immunity in IL-33-induced allergic airway inflammation” (Nature Communications, 2018).

Tests used:
WT and PIN1 KO mice = assay: OVA-induced allergic asthma in mice; assay type: in vivo, mouse; conditions: OVA-challenged PIN1 KO vs WT mice
Procedure: Fig. 1 PIN1 is required for IL-33 to induces TH2 polarization and allergic inflammation. a 5 and15 min after IL-33 treatment of DC2.4 cells, cells were extracted and PIN1 activity was measured as previously described. Inset: PIN1 was immune precipitated and immune blotted for PIN1 or Ser71 phosphorylation as indicated. b WT and PIN1 KO MEF’s were treated with different concentrations of IL-33 for 24 h and the medium was measured for IL-6 secretion. c WT and PIN1 KO mice were treated with 200 ng/mice/day for 4 consecutive days and the BALF was examined for IL-4, 5, 6 and 13 by ELISA. d H&E staining representative of lungs from WT and PIN1 KO mice treated with IL-33 (n = 4). Scale bar = 50 µm. e Total cell number in the BALF of WT and PIN1 KO mice was measured using HEMAVET multispecies hematology analyzer. f Eosinophil cell number in the BALF of WT and PIN1 KO mice was measured using HEMAVET multispecies hematology analyzer. g Representative H&E staining of lung sections from WT and PIN1 KO mice after OVA-induced allergic asthma (n = 4). Scale bar = 50 µm. h IL-4, -5, -13 and IL-33 levels in the BALF of WT and PIN1 KO mice after OVA-induced allergic asthma. The groups were compared using Mann-Whitney U test (i) Total cell number in the BALF of WT and PIN1 KO mice before and after OVA-induced allergic asthma. The data were analyzed by a Student’s two-tailed t test unless stated otherwise, and the values are reported as mean ± standard errors of the means (SEM). *- statistical significance (P < 0.05), **- significance (P < 0.01)

PIN1-IRAK-M interaction = assay: Co-immunoprecipitation of PIN1 and IRAK-M; assay type: binding; conditions: stably expressing DC2.4 cells, with/without IL-33
Procedure: (§1) Fig. 2 IL-33 induces IRAK-M phosphorylation and binding to PIN1. a GST PIN1 pulldown assay with DC2.4 cell extracts either non-treated or treated with IL-33 (100 ng/ml) or LPS (100ng/ml) for 1 h. […] The cells were washed with fresh medium and treated with 100 ng/ml IL-33 for the indicated times prior to IRAK-M immunoprecipitation. d DC2.4 cells stably expressing IRAK-M were treated with IL-33 and at the indicated time points were subjected to CO-IP using anti-PIN1 antibody and blotted for IRAK-M. e HEK293 cells were transfected with different IRAK-M constructs expressing the N’ terminal domain (aa1-220), the middle portion of the protein (aa220-440) or the C’ terminal domain (aa 440-630), and then treated with IL-33, followed by CO-IP for PIN1. f DC2.4 cells stably expressing IRAK-M were treated with IL-33 and subjected to GST or GST-PIN1 pull-down.
Cells from one 10-cm dish were homogenized in lysis buffer containing 150 mM NaCl, 1% NP-40, 0.5% deoxycholate, 0.1% SDS, 50 mM Tris-HCl (pH 7.7), 1 mM phenylmethylsulfonyl fluoride (PMSF), 1 mM dithiothreitol, and protease inhibitors. Clarified supernatants were incubated with pre incubated immobilized beads rProtein A agarose beads (RepliGen) premixed with PIN1, GFP or IRAK-M antibody or, as a control, IgG overnight at 4 °C. The beads were washed extensively with lysis buffer before elution in SDS sample buffer.

IRAK-M [1] = assay: IRAK-M protein stability, cycloheximide chase; assay type: cell-based; conditions: for IRAK-M half-life: cycloheximide chase
Procedure: Fig. 4 PIN1 increases IRAK-M protein stabilization. a After IRAK-M and GFP were coexpressed in WT and PIN1 KO MEFs for 24 h, cells were split equally into 5 dishes. 24 h later cells were treated with cyclohexamide and harvested to monitor IRAK-M, GFP and PIN1 levels at the time points indicated. b Quantification of 3 independent experiments as in a. c WT MEFs stably expressing the TET on inducible short hairpin for PIN1 (shPin1) or pLKO as a control, were expressed with IRAK-M, followed by induction with Doxycycline for 18 h prior to the cyclohexamide chase. d Quantification of 3 independent experiments as in c. e BMDCs from WT or PIN1 KO mice were treated with IL-33 and the levels of IRAK-M were monitored at different time points after induction. f Quantification of 3 independent experiments as in e. g PIN1 KO MEFs were expressed with IRAK-M alone or in combination with PIN1 or its mutants W34A or K63A for 24 h, followed by the cyclohexamide chase to assay IRAK-M stability. h Quantification of 3 independent experiments as in g. i IRAK-M or its different mutants; S110A, S110E and P111A were expressed in WT MEFs, followed by the cyclohexamide chase to assay IRAK-M stability. j Quantification of 3 independent experiments as in i. k IRAK-M or its different mutants were stably expressed in DC2.4 cells, followed by the cyclohexamide chase to monitor IRAK-M stability. l Quantification of 3 independent experiments as in k. The data were analyzed by a Student’s two-tailed t test and the values are reported as mean ± standard errors of the means (SEM). *- statistical significance (P < 0.05), **- significance (P < 0.01)

IRAK-M [2] = assay: IRAK-M nuclear localization in DC2.4 cells; assay type: cell-based, C57BL/6; conditions: stably expressed in DC2.4 cells
Procedure: Suppl em enta ry Figur e 3. a DAPI IR AK-M Pin1 Mergeb […]
Supplementary Figure 3. Pin1 targets IRAK-M and promotes its nuclear translocation upon IL-33 induction.
(a) Immunostaining for IRAK-M and Pin1 in DC2.4 cells before and after IL-33 treatment. ( b) DC2.4 cells were treated with IL-33 and subjected to nuclear/cytoplasmic fractionation, followed by Western blot for IRAK-M with actin as a cytoplasmic marker and Fox1 as a nuclear marker. C- cytoplasmic; N- Nuclear.
(c) Cytospin slides from BALF of the treated WT mice as indicated, were co stained for DC205 and IRAK-M.
(d) IRAK-M or its mutants S110E or P111A were stably expressed in DC2.4 cells and their localization and Pin1 localization were monitored by immunostaining. (e) GFP-IRAK-M were expressed in Pin1 KO MEFs either with or without RFP-Pin1 as indicated, and their localization was monitored. Scale = 50 µm.
(also on this page, place not known: Control +IL-33: b DAPIe MergeGFP RFP GFP- GFP-IRAK-M/ RFP MergeIRAK-M Pin1DAPI ControlIL-33 Mergec Supplementary Figure IRAK-M IRAK-M (b) IL-33 IRAK-M IRAK-M Pin1) […]

IRAK-M [3] = assay: IRAK-M phosphorylation in DC2.4 cells; assay type: cell-based, C57BL/6; conditions: DC2.4 stably expressing mutant, IL-33
Procedure: as §1

[4] = mutant IRAK-M, WT MEFs, reproduced in DC2.4 cells

B1: OVA: ovalbumin (OVA), inducer of model of allergic asthma (protein, UniProt P01012 2-386, looked up)
Ovalbumin: GSIGAASMEFCFDVFKELKVHHANENIFYCPIAIMSALAMVYLGAKDSTRTQINKVVRFDKLPGFGDSIEAQCGTSVNVHSSLRDILNQITKPNDVYSFSLASRLYAEERYPILPEYLQCVKELYRGGLEPINFQTAADQARELINSWVESQTNGIIRNVLQPSSVDSQTAMVLVNAIVFKGLWEKAFKDEDTQAMPFRVTEQESKPVQMMYQIGLFRVASMASEKMKILELPFASGTMSMLVLLPDEVSGLEQLESIINFEKLTEWTSSNVMEERKIKVYLPRMKMEEKYNLTSVLMAMGITDVFSSSANLSGISSAESLKISQAVHAAHAEINEAGREVVGSAEAGVDAASVSEEFRADHPFLFCIKHIATNAVLFFGRCVSP
- BALF total cells count (WT and PIN1 KO mice): reduced BALF total cells count
- TH2 cytokine levels in BALF (WT and PIN1 KO mice): reduced TH2 cytokine levels
- lung inflammation (WT and PIN1 KO mice): reduced lung inflammation

B2: IRAK-M: Interleukin receptor associated kinase M (protein, UniProt Q8K4B2 1-609, looked up)
Interleukin-1 …: MAGRCGARGALSPQLLLFDLPPALLGELCGILDSCDGPLGWRGLAERLSNSWLDVRHIEKYVNQGKSGTRELLWSWAQKNKTIGDLLEVLQDMGHQRAIHLIINYGVSWTPSVQTHHELPFPSFPPEVKHACRENDPGPLEPANVTVDNVLVPEHNEKGTLQKTPISFQSILEGTKHFHKDFLIGEGEIFEVYRVDIRNQAYAVKLFKQEKKMQLKKHWKRFLSELEVLLLFRHPHILELAAYFTETEKLCLVYPYMSNGTLFDRLQCTNGTTPLSWHVRISVLIGIAKAIQYLHNTQPCAVICGNVSSANILLDDQLQPKLTDFAAAHFRPNLEQQSSTINMTGGGRKHLWYMPEEYIRQGRLSVKTDVYSFGIVIMEVLTGCKVVLDDPKHVQLRDLLMELMEKRGLDSCLSFLDRKIPPCPRNFSAKLFSLAGRCVATKAKLRPTMDEVLSSLESTQPSLYFAEDPPTSLKSFRCPSPLFLDNVPSIPVEDDENQNNHSVPPKEVLGTDRVTQKTPFECSQSEVTFLGLDRNRGNRGSEADCNVPSSSHEECWSPELVAPSQDLSPTVISLGSSWEVPGHSYGSKPMEKRCSSGLFCSEHEQSKKQ
- PIN1 interaction (CO-IP), IRAK-M mutants (PIN1-IRAK-M interaction): evident only after IL-33 stimulation
- IRAK-M half-life (IRAK-M [1]; PIN1 KO MEFs): < 3 h
- IRAK-M half-life (IRAK-M [1]; WT MEFs): ~ 6 h
- reduction of IRAK-M half-life (IRAK-M [1]; inducible PIN1 knock down (KD), MEFs): more than 50%

B3: S110E: IRAK-M full protein phosphomimetic mutant S110E (protein)
chain: MAGNCGARGALSAHTLLFDLPPALLGELCAVLDSCDGALGWRGLAERLSSSWLDVRHIEKYVDQGKSGTRELLWSWAQKNKTIGDLLQVLQEMGHRRAIHLITNYGAVLEPSEKSYQEGGFPNILFKETANVTVDNVLIPEHNEKGILLKSSISFQNIIEGTRNFHKDFLIGEGEIFEVYRVEIQNLTYAVKLFKQEKKMQCKKHWKRFLSELEVLLLFHHPNILELAAYFTETEKFCLIYPYMRNGTLFDRLQCVGDTAPLPWHIRIGILIGISKAIHYLHNVQPCSVICGSISSANILLDDQFQPKLTDFAMAHFRSHLEHQSCTINMTSSSSKHLWYMPEEYIRQGKLSIKTDVYSFGIVIMEVLTGCRVVLDDPKHIQLRDLLRELMEKRGLDSCLSFLDKKVPPCPRNFSAKLFCLAGRCAATRAKLRPSMDEVLNTLESTQASLYFAEDPPTSLKSFRCPSPLFLENVPSIPVEDDESQNNNLLPSDEGLRIDRMTQKTPFECSQSEVMFLSLDKKPESKRNEEACNMPSSSCEESWFPKYIVPSQDLRPYKVNIDPSSEAPGHSCRSRPVESSCSSKFSWDEYEQYKKE
- PIN1 interaction (CO-IP), IRAK-M mutants (PIN1-IRAK-M interaction): much weaker PIN1 interaction was evident before IL-33 stimulation
- resistance of IRAK-M to degradation (IRAK-M [1]; [4]): completely resistant to degradation
- nuclear localization of mutant IRAK-M (IRAK-M [2]): higher nuclear localization

B4: P111A: IRAK-M mutant that eliminates the PIN1 consensus motif (protein)
chain: MAGNCGARGALSAHTLLFDLPPALLGELCAVLDSCDGALGWRGLAERLSSSWLDVRHIEKYVDQGKSGTRELLWSWAQKNKTIGDLLQVLQEMGHRRAIHLITNYGAVLSASEKSYQEGGFPNILFKETANVTVDNVLIPEHNEKGILLKSSISFQNIIEGTRNFHKDFLIGEGEIFEVYRVEIQNLTYAVKLFKQEKKMQCKKHWKRFLSELEVLLLFHHPNILELAAYFTETEKFCLIYPYMRNGTLFDRLQCVGDTAPLPWHIRIGILIGISKAIHYLHNVQPCSVICGSISSANILLDDQFQPKLTDFAMAHFRSHLEHQSCTINMTSSSSKHLWYMPEEYIRQGKLSIKTDVYSFGIVIMEVLTGCRVVLDDPKHIQLRDLLRELMEKRGLDSCLSFLDKKVPPCPRNFSAKLFCLAGRCAATRAKLRPSMDEVLNTLESTQASLYFAEDPPTSLKSFRCPSPLFLENVPSIPVEDDESQNNNLLPSDEGLRIDRMTQKTPFECSQSEVMFLSLDKKPESKRNEEACNMPSSSCEESWFPKYIVPSQDLRPYKVNIDPSSEAPGHSCRSRPVESSCSSKFSWDEYEQYKKE
- PIN1 interaction (CO-IP), IRAK-M mutants (PIN1-IRAK-M interaction): totally abolished
- IRAK-M phosphorylation (mutant) (IRAK-M [3]): totally abolished
- decrease of IRAK-M protein stability (IRAK-M [1]; [4]): ~ 50%
